Experimental data published in patent publication US20030198640A1 (Human Genome Sciences, published 2003).

How the values were obtained:
Test in all cases: flow cytometry on transiently transfected cells
[1] = target: T1, LT R (LTβR) on transiently transfected cells (UniProt P36941 31-435, limits assumed)
T1 construct: whole, on cells
Protocol: (§1) One million cells, in 0.1 ml of FACS buffer (PBS, 0.1% BSA, 0.1% NaN₃), were incubated with 0.1-1 microgram of protein or antibody at RT for 15 min. The cells were washed with 3 ml of FACS buffer, reacted with biotinylated primary antibody, and stained with PE-conjugated secondary antibody at RT for 15 min. Cells were then washed again, resuspended in 0.5 microgram/ml of propidium iodide, and live cells were gated and analyzed on a FACScan using the CellQuest software (BD Biosciences).

[2] = target: T2, CD30 on transiently transfected cells (UniProt P28908 19-595, limits assumed)
T2 construct: whole, on cells
T2 sequence (looked up): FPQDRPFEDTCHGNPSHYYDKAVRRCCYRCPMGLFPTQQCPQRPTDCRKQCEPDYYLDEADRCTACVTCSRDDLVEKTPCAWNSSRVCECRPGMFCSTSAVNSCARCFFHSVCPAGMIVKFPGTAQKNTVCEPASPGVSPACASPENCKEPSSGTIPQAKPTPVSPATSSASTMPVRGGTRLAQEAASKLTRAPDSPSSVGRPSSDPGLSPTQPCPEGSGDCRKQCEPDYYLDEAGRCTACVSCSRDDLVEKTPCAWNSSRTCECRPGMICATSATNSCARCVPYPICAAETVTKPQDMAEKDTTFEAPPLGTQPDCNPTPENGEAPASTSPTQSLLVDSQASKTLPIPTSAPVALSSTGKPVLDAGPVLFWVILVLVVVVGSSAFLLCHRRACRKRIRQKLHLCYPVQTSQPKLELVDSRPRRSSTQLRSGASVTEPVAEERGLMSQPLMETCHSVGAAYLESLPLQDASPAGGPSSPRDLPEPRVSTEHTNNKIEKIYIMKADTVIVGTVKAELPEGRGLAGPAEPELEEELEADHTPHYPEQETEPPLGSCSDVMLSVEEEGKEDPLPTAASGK
Protocol: as §1

[3] = target: T3, AITR on transiently transfected cells (UniProt Q9Y5U5 26-241, limits assumed)
T3 construct: whole, on cells
T3 sequence (looked up): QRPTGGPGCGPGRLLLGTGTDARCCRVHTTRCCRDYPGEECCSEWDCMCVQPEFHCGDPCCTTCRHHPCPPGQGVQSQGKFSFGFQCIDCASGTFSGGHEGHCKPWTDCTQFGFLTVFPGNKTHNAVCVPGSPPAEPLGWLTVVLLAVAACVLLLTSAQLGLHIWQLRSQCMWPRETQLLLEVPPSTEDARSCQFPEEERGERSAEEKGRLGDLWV
Protocol: as §1

[4] = target: T4, BCMA on transiently transfected cells (UniProt Q02223 1-184, limits assumed)
T4 construct: whole, on cells
T4 sequence (looked up): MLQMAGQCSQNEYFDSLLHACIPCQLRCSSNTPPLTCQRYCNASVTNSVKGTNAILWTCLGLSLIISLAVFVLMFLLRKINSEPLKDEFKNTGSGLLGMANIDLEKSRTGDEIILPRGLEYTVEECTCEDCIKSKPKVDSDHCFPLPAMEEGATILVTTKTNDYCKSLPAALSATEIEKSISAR
Protocol: as §1

[5] = target: T5, RANK on transiently transfected cells (UniProt Q9Y6Q6 30-616, limits assumed)
T5 construct: whole, on cells
T5 sequence (looked up): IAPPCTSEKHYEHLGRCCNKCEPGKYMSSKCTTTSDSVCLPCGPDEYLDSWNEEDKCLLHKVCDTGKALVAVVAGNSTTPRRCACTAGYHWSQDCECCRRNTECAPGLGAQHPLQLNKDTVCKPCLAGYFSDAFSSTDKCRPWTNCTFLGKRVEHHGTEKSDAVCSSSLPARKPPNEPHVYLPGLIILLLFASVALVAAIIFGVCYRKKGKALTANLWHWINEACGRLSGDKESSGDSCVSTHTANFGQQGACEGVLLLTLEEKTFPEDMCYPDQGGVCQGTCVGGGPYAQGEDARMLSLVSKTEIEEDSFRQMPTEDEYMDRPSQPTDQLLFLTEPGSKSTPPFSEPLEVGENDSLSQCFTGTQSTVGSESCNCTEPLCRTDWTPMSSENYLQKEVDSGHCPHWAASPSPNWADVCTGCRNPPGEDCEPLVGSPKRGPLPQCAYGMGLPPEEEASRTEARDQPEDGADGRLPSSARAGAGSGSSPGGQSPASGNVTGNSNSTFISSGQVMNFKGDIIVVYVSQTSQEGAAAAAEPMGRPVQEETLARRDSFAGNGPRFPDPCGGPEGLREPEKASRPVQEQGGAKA
Protocol: as §1

[6] = target: T6, DcR1 on transiently transfected cells (UniProt O14798 26-236, limits assumed)
T6 construct: whole, on cells
T6 sequence (looked up): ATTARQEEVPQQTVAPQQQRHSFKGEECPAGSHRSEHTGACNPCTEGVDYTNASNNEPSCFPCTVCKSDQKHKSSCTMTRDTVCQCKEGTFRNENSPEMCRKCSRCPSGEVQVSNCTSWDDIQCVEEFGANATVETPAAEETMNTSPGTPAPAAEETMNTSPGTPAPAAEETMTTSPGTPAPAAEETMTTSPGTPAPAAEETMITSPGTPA
Protocol: as §1

Measured: binding result

T1 sequence (P36941 31-435 limits assumed): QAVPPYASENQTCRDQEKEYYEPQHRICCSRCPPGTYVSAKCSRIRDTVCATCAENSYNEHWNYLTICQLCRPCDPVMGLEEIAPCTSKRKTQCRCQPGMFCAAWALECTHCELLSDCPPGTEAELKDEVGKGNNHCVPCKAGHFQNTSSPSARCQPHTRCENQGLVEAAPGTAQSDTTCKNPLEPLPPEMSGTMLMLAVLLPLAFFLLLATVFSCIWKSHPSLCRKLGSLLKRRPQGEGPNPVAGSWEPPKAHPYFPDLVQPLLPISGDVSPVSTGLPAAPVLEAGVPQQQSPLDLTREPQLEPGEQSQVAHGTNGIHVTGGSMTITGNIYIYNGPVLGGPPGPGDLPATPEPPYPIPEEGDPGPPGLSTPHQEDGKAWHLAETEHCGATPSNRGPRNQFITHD

B1: FLAG-tagged soluble form of TNF-gamma-beta (aa 72-251) (ligand)
chain: LKGQEFAPSHQQVYAPLRADGDKPRAHLTVVRQTPTQHFKNQFPALHWEHELGLAFTKNRMNYTNKFLLIPESGDYFIYSQVTFRGMTSECSEIRQAGRPNKPDSITVVITKVTDSYPEPTQLLMGTKSVCEVGSNWFQPIYLGAMFSLQEGDKLMVNVSDISLVDYTKEDKTFFGAFLL
notes: also called FLAG-TL1β; FLAG-TNF-gamma-beta; not shown: FLAG tag of the pFLAG-CMV-1 vector at the amino terminus
no binding: all assays above
